We go through 14 substances from US20240132578A1.

Test in all cases: cell-based or functional assay
Experiment [1] addresses HIV-1 Env of pseudovirus isolate APV-17 (clade B) (HIV-1).
Experiment [2] deals with HIV-1 Env of isolate CMU02 (pseudovirus) (HIV-1).
Experiment [3] addresses HIV-1 Env of isolate MGRM-C-022 (subtype C), on pseudovirus (HIV-1).
In experiment [4] the target is HIV-1 Env of isolate MG RM-A-011 (pseudovirus) (HIV-1).
In experiment [5] the target is HIV-1 Env of isolate MGRM-D-001 (HIV-1).
Experiment [6] deals with HIV-1 Env of isolate MG RM-A-012 (pseudovirus) (HIV-1).
For experiment [7], the target named is HIV-1 Env of isolate VLGCA1 (pseudovirus) (HIV-1).
Experiment [8] deals with HIV-1 Env of isolate MG RM-A-007 (pseudovirus) (HIV-1).
The target in experiment [9] is HIV-1 envelope glycoprotein (Env) of isolate 92WR024, subtype A (HIV-1).
The target of experiment [10] is HIV-1 envelope glycoprotein (Env) of isolate MG RM-A-003, subtype A (HIV-1).
Experiment [11] has as its target HIV-1 envelope glycoprotein (Env) of isolate APV_6, on pseudovirus (HIV-1).
The target of experiment [12] is HIV-1 envelope glycoprotein (Env) of isolate MGRM-Chronic-B-003, on pseudovirus (HIV-1).
The target of experiment [13] is HIV-1 envelope glycoprotein (Env) of isolate QH0692.42, on pseudovirus (HIV-1).
For experiment [14], the target named is HIV-1 envelope glycoprotein (Env) of isolate THRO.18, on pseudovirus (HIV-1).
Experiment [15] concerns the target HIV-1 envelope glycoprotein (Env) of isolate MGRM-Chronic-B-012, on pseudovirus (HIV-1).
The target in experiment [16] is HIV-1 Env of pseudovirus isolate MGRM-C-012 (clade C) (HIV-1).
The target in experiment [17] is HIV-1 Env of isolate MGRM-A-012 (subtype A) (HIV-1).
Experiment [18] deals with HIV-1 Env of isolate MGRM-AE-004 (subtype AE) (HIV-1).
The target in experiment [19] is HIV-1 Env of isolate MGRM-D-004 (pseudovirus) (HIV-1).
Experiment [20] deals with HIV-1 Env of isolate MGRM-AG-006 (subtype AG) (HIV-1).
The target of experiment [21] is HIV-1 Env of isolate MGRM-D-018 (pseudovirus) (HIV-1).
Experiment [22] concerns the target HIV-1 Env of isolate MGRM-D-003 (pseudovirus) (HIV-1).
The target of experiment [23] is HIV-1 Env of isolate MGRM-C-005 (HIV-1).
Experiment [24] deals with HIV-1 Env of pseudovirus isolate MGRM-C-007 (clade C) (HIV-1).
The target in experiment [25] is HIV-1 Env of pseudovirus isolate MGRM-C-015 (clade C) (HIV-1).
For experiment [26], the target named is HIV-1 Env of pseudovirus isolate MGRM-C-026 (clade C) (HIV-1).
Experiment [27] has as its target HIV-1 Env of isolate MGRM-D-002 (pseudovirus) (HIV-1).
In experiment [28] the target is HIV-1 Env of isolate MGRM-A-004 (pseudovirus) (HIV-1).
Experiment [29] deals with HIV-1 Env of isolate 98CN009 (pseudovirus) (HIV-1).
For experiment [30], the target named is HIV-1 Env of pseudovirus isolate MGRM-C-006 (clade C) (HIV-1).
Experiment [31] addresses HIV-1 Env of pseudovirus MGRM-F1-013 (HIV-1).
Experiment [32] deals with HIV-1 Env of pseudovirus MGRM-F1-004 (HIV-1).
Experiment [33] addresses HIV-1 Env of pseudovirus MGRM-D-016 (HIV-1).
Experiment [34] addresses HIV-1 envelope glycoprotein (Env) of isolate MG RM-AG-012 (HIV-1).
The target of experiment [35] is HIV-1 envelope glycoprotein (Env) of isolate MG RM-AG-005 (HIV-1).
For experiment [36], the target named is HIV-1 Env of pseudovirus MGRM-D-011 (HIV-1).
Experiment [37] has as its target HIV-1 Env of pseudovirus MGRM-G-014 (HIV-1).
Experiment [38] concerns the target HIV-1 Env of pseudovirus MGRM-F1-006 (clade F) (HIV-1).
Experiment [39] concerns the target HIV-1 APV-17 envelope (Env) on pseudovirus (HIV-1).
Experiment [40] concerns the target HIV-1 envelope glycoprotein (Env) of isolate MGRM-C-015 (HIV-1).
Experiment [41] addresses HIV-1 MGRM-G-006 Env (pseudovirus) (HIV-1).

Sequence of 4980_N08 (PGT-143) (antibody) (VH): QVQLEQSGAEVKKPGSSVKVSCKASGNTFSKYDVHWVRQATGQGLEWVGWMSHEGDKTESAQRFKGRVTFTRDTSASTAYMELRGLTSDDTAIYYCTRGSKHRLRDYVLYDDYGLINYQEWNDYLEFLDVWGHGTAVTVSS
Sequence of 4980_N08 (PGT-143) (antibody) (VL): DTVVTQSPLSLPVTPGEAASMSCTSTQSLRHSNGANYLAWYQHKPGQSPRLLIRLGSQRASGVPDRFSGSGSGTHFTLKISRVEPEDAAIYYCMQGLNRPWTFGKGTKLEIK
Sequence of 4995_E20 (PGT-142) (antibody) (VH): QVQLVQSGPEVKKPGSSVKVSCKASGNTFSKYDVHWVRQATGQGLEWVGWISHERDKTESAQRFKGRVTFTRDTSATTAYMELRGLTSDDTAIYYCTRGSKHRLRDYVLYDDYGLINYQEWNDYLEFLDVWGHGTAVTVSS
Sequence of 4995_E20 (PGT-142) (antibody) (VL): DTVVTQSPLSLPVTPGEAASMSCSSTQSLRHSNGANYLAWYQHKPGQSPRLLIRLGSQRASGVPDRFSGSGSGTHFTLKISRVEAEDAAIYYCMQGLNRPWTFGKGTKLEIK
Sequence of 4993_K13 (PGT-141) (antibody) (VH): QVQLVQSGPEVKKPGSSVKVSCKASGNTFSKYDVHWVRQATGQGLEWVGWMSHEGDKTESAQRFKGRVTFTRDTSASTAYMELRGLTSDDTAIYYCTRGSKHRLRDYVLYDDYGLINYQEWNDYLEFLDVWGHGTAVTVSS
Sequence of 4970_K22 (PGT-144) (antibody) (VH): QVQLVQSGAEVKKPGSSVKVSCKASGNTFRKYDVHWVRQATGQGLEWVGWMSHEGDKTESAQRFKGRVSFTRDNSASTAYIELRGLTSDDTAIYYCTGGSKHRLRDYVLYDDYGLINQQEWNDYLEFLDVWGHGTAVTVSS
Sequence of 4970_K22 (PGT-144) (antibody) (VL): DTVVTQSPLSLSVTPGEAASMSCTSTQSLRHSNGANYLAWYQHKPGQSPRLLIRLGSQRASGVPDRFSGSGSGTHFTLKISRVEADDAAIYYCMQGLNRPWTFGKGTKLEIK
Sequence of 4995_P16 (PGT-145) (antibody) (VH): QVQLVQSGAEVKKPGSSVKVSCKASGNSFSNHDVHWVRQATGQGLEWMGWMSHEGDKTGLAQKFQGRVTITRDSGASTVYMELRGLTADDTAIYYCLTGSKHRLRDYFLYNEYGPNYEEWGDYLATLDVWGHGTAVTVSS
Sequence of 4995_P16 (PGT-145) (antibody) (VL): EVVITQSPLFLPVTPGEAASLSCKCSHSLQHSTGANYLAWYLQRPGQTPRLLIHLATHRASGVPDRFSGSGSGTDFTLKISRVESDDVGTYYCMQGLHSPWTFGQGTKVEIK

In experiment [1], 4995_P16 (PGT-145) (antibody) had an IC50, pseudovirus neutralization of 0.488 µg/mL. In addition, the IC50 (µg/mL), single-round pseudovirus neutralization in experiment [2] was 1.43 µg/mL; in [4], 0.484 µg/mL; in [6], 0.23 µg/mL; in experiment [7], 8.01 µg/mL; in experiment [8], above 50 µg/mL. The substance further registered an IC50, single-round pseudovirus neutralization in experiment [3] of 0.492 µg/mL. In experiment [5], this substance had an IC50 (µg/mL), pseudovirus neutralization of 0.56 µg/mL.
4980_N08 (PGT-143) (antibody) gave an IC50, pseudovirus neutralization in experiment [1] of 1.11 µg/mL. The IC50 (µg/mL), single-round pseudovirus neutralization in experiment [2] is above 50 µg/mL; in [4], above 50 µg/mL; in [6], above 50 µg/mL; in experiment [7] it was 17.4 µg/mL; in experiment [8] it was above 50 µg/mL. This substance also came in with an IC50, single-round pseudovirus neutralization in experiment [3] of 0.103 µg/mL. Besides, the IC50 (µg/mL), pseudovirus neutralization in experiment [5] was above 50 µg/mL.
For the substance PGV04 (antibody), the IC50 (µg/mL), pseudovirus neutralization in experiment [2] stood at 1.24 µg/mL; in experiment [7] it was 0.024 µg/mL.
In turn, 4970_K22 (PGT-144) (antibody) came in with an IC50, pseudovirus neutralization in experiment [1] of 10.3 µg/mL. Moreover, the IC50 (µg/mL), single-round pseudovirus neutralization in experiment [2], in experiment [4], in [6], in [7] and in [8] was above 50 µg/mL throughout. The substance also gave an IC50, single-round pseudovirus neutralization in [3] of 2.58 µg/mL. In [5], this substance registered an IC50 (µg/mL), pseudovirus neutralization above 50 µg/mL.
On to 4858_P08 (PGT-123) (antibody), for which the IC50, pseudovirus neutralization in [9] is above 50 µg/mL; in experiment [10] it was 0.495 µg/mL; in [11] it was 0.023 µg/mL; in [12], 0.008 µg/mL; in [13], 0.158 µg/mL; in [14], above 50 µg/mL. Besides, in experiment [15], the IC50, pseudovirus neutralization is 0.227 µg/mL.
In the case of 4838_L06 (PGT-121) (antibody), the IC50, pseudovirus neutralization in [9] was above 50 µg/mL; in [10], 0.435 µg/mL; in experiment [11], 0.018 µg/mL; in experiment [12], 0.011 µg/mL; in [13] it was 0.823 µg/mL; in experiment [14], above 50 µg/mL. The IC50, pseudovirus neutralization in [15] was determined as 0.036 µg/mL.
In the case of 5345_I01 (PGT-137) (antibody), the IC50, pseudovirus neutralization in experiment [16] is 0.102 µg/mL; in experiment [17], above 50 µg/mL; in experiment [18], above 50 µg/mL; in experiment [20], 28.3 µg/mL; in experiment [24] it was above 50 µg/mL; in experiment [25] it was 1.98 µg/mL. In addition, the IC50, pseudovirus neutralization was 0.011 µg/mL in experiment [26] and above 50 µg/mL in [30]. Moreover, the IC50 (µg/mL), pseudovirus neutralization in experiment [19] was above 50 µg/mL; in experiment [21], 15.1 µg/mL; in experiment [22], above 50 µg/mL; in experiment [23], above 50 µg/mL; in experiment [27], above 50 µg/mL; in [28], above 50 µg/mL. Further, the IC50 (µg/mL), pseudovirus neutralization in [29] came to 5.06 µg/mL.
For orientation: IC50 means the point on the concentration scale where inhibition reaches its midpoint. On to PGT-141 (4964_G22; 4993_K13) (antibody), for which the IC50, pseudovirus neutralization in experiment [31] was 0.043 µg/mL; in experiment [32] it was 0.021 µg/mL; in experiment [33], above 50 µg/mL; in [36], above 50 µg/mL. Besides, the results for the half-inhibitory concentration (IC50) in [34] and in experiment [35] were above 50 µg/mL and 0.497 µg/mL, respectively.
In the case of 5329_C19 (PGT-136) (antibody), the IC50, pseudovirus neutralization in experiment [16] was above 50 µg/mL; in experiment [17], above 50 µg/mL; in experiment [18], above 50 µg/mL; in experiment [20] it was 29.1 µg/mL; in experiment [24], above 50 µg/mL; in experiment [25] it was 11.1 µg/mL. Further, the IC50, pseudovirus neutralization in [26] was 0.006 µg/mL; in experiment [30] it was above 50 µg/mL. In addition, the IC50 (µg/mL), pseudovirus neutralization in [19], in experiment [21], in experiment [22], in experiment [23], in experiment [27] and in [28] was above 50 µg/mL each time. This substance also registered an IC50 (µg/mL), pseudovirus neutralization in [29] of 0.428 µg/mL.
Regarding 4995_E20 (PGT-142) (antibody), in experiment [1], the IC50, pseudovirus neutralization turned out to be 0.628 µg/mL. For the same substance, the IC50 (µg/mL), single-round pseudovirus neutralization was above 50 µg/mL in [2]; above 50 µg/mL in experiment [4]; above 50 µg/mL in [6]; 2.75 µg/mL in experiment [7]; above 50 µg/mL in experiment [8]. The substance also registered an IC50, single-round pseudovirus neutralization in experiment [3] of 0.086 µg/mL. Moreover, the IC50 (µg/mL), pseudovirus neutralization in [5] is above 50 µg/mL.
Consider 4993_K13 (PGT-141) (antibody), for which the IC50, pseudovirus neutralization in [1] stood at 0.59 µg/mL. In addition, the IC50 (µg/mL), single-round pseudovirus neutralization in [2] was above 50 µg/mL; in [4] it was above 50 µg/mL; in experiment [6], above 50 µg/mL; in [7], 2.07 µg/mL; in experiment [8] it was above 50 µg/mL. Besides, the IC50, single-round pseudovirus neutralization in experiment [3] was 0.381 µg/mL. Moreover, the IC50 (µg/mL), pseudovirus neutralization in experiment [5] is above 50 µg/mL.
For the substance 5343_B08 (PGT-135) (antibody), the IC50, pseudovirus neutralization in experiment [16] is 0.017 µg/mL; in [17], above 50 µg/mL; in experiment [18] it was above 50 µg/mL; in experiment [20], 17.9 µg/mL; in experiment [24], above 50 µg/mL; in experiment [25], 0.104 µg/mL. In addition, the IC50, pseudovirus neutralization in experiment [26] is 0.004 µg/mL; in [30], above 50 µg/mL. Further, the IC50 (µg/mL), pseudovirus neutralization in experiment [19] is above 50 µg/mL; in [21], 0.039 µg/mL; in experiment [22] it was above 50 µg/mL; in [23], above 50 µg/mL; in [27], above 50 µg/mL; in experiment [28] it was above 50 µg/mL. For the same substance, in [29], the IC50 (µg/mL), pseudovirus neutralization came to 0.071 µg/mL.
For 4877_D15 (PGT-122) (antibody), the IC50, pseudovirus neutralization is above 50 µg/mL in experiment [9]; 3.79 µg/mL in experiment [10]; 0.019 µg/mL in experiment [11]; 0.008 µg/mL in experiment [12]; 0.493 µg/mL in experiment [13]; above 50 µg/mL in [14]. This substance also gave an IC50, pseudovirus neutralization in experiment [15] of 0.066 µg/mL.
With 1496_C09 (PG9) (TCN-109) (antibody), the results for the IC50 (µg/ml), pseudovirus neutralization in experiment [37], in [40] and in experiment [41] were 6.32 µg/mL, 0.5 µg/mL and 0.51 µg/mL, respectively. This substance also gave an IC50 in [38] of 1.45 µg/mL. In addition, the neutralization IC50 in experiment [39] turned out to be 26.4 µg/mL. For the same substance, the IC50 (µg/mL), pseudovirus neutralization in experiment [7] is 0.069 µg/mL.
